For 16 sequences, binding signal (ohm (RCTV-RCTB)) results are on record in patent US20140342918.

The series deals with Vesicular stomatitis virus (whole virion) (Vesicular stomatitis virus).

Take “CTCCTCTGACTGTAACCACGCGCCCTCAGAACTTTTGTATCCGAACACCTGCATCGTCCGGGCTTCTGGACTACCTATGC [SwAp1]”: the binding signal (ohm (RCTV-RCTB)) is 1040.

As for “CTCCTCTGACTGTAACCACGGCACCCCGAGGCAATTTCGCGCATAGTTCATCCTGTTTGGGGCTTCTGGACTACCTATGC [SwAp15]”, the binding signal (ohm (RCTV-RCTB)) was 930.

“CTCCTCTGACTGTAACCACGNNNNNNNNNNNNNNNNNNNNNNNNNNNNNNNNNNNNNNNGGCTTCTGGACTACCTATGC [Pool 10]” displayed a binding signal (ohm (RCTV-RCTB)) of 182.

Turning to “CTCCTCTGACTGTAACCACGTACCACCCGTGACCCTCACATCCCTCCTCTGACGTAACCACGCGGGCTTCTGGACTACCTATGC [SwAp8]”, the binding signal (ohm (RCTV-RCTB)) amounted to 1680.

“CTCCTCTGACTGTAACCACGTACCACCCGTGACCCTCACATCCCTCCTCTGTTCTCCGCGGGCTTCTGGACTACCTATGC [SwAp5]” had a binding signal (ohm (RCTV-RCTB)) of 838.

With “CTCCTCTGACTGTAACCACGTACCACCCGTGACCCTCACATCCCTCCTCTGTTCTCCGCGGGCTTCTGGACTACCTATGC [SwAp13]”, the binding signal (ohm (RCTV-RCTB)) came out at 1980.

“CTCCTCTGACTGTAACCACGTACCACCCGTGACCCTTACATCCCTCCTCTGTTCTCCGCGGGCTTCTGGACTACCTATGC [SwAp12]” displayed a binding signal (ohm (RCTV-RCTB)) of 2180.

In turn, “CTCCTCTGACTGTAACCACGTACCACCCGTGACGCGCACATCCCTCCTCTGTTCTCCGCGGGCTTCTGGACTACCTATGC [SwAp2]” returned a binding signal (ohm (RCTV-RCTB)) of 1420.

“CTCCTCTGACTGTAACCACGTACCACCCGTGGCCCTCACATCCCTCCTCTGTTCTCCGCGGGCTTCTGGACTACCTATGC [SwAp7]” came in with a binding signal (ohm (RCTV-RCTB)) of 1770.

On to “CTCCTCTGACTGTAACCACGTACCACCCGTGGCCCTCACATCCCTCCTCTGTTCTCCGCGGGCTTCTGGACTACCTATGC [SwAp9]”, for which the binding signal (ohm (RCTV-RCTB)) turned out to be 1180.

“CTCCTCTGACTGTAACCACGTACCACCCTTGACCCTCACATCCCTCCTCTGTTCTCCGCGGGCTTCTGGACTACCTATGC [SwAp14]”: the binding signal (ohm (RCTV-RCTB)) was determined as 709.

Sequence “CTCCTCTGACTGTAACCACGTACCGCCCGTGACCCTCACATCCCTCCTCTGTTCTCCGCGGGCTTCTGGACTACCTATGC [SwAp10]” showed a binding signal (ohm (RCTV-RCTB)) of 3720.

“CTCCTCTGACTGTAACCACGTGCCCCCTCCATCCCGAGTAACCTACGTCCATGTCTCGCTGGCTTCTGGACTACCTATGC [SwAp3]” returned a binding signal (ohm (RCTV-RCTB)) of 803.

In the case of “CTCCTCTGACTGTAACCACGTGCCCCCTCCATCCCGAGTAACCTACGTCCATGTCTCGCTGGCTTCTGGACTACCTATGC [SwAp4]”, the binding signal (ohm (RCTV-RCTB)) stood at 955.

The sequence “CTCCTCTGACTGTAACCACGTGGCACTGTTGTCATCACTGTCCCCCCCTAACTCGTCCGTGGCTTCTGGACTACCTATGC [SwAp6]” had a binding signal (ohm (RCTV-RCTB)) of 1290.

The sequence “TCCTCTGACTGTAACCACGCAGCCACCATACTGTCCCGTTTGCCCCCGCCGATTCCGTCGGCTTCTGGACTACCTATGC [SwAp11]” yielded a binding signal (ohm (RCTV-RCTB)) of 373.
